System: HUVEC
Test: Tube formation by HUVEC in collagen gel
Assay type: cell-based, human
Experimental: Human Umbilical vein endothelial cells (HUVEC) were obtained by treating fresh human umbilical cord veins with Trypsin-EDTA (1×) (Gibco/Invitrogen) for 20-25 minutes at 37° C. The cells were cultured in a T-25 flask coated with attachment factor (AF), (Cascade Biologics) in RPMI 1640 medium supplemented with 10% FCS, 0.4% BBE, 1% 1-glutamin, 1% penicillin/streptomycin. Primary cultures were detached with warm Trypsin-EDTA and used when confluent at the second or third passage. The cells were maintained in a proliferative state by culturing them in a split ratio 1:2 at an approximate density of the monolayer of about 60-80%. […]
After 2 passages HUVECs were seeded in their culture medium (40×10^3/50 μl/well of a 96-well plate) on a collagen gel (50 μl of collagen I 1.5 mg/ml) prepared by mixing 7.5 volumes of 2 mg/ml collagen (Collagen R; Serva, Heidelberg, Germany), 1 volume of 10× MEM, 1.5 volume of NaHCO3 (15.6 mg/ml) and ˜1 volume of NaOH to adjust the pH to 7.4. […] The assay was performed with a streptavidin antibody used as a control (from 1 ng/ml to 10 μg/ml): The total length of the tube network on the culture surface was quantified at 40× magnification by the METAVUE™ Software (Universal Imaging Corporation). Results from triplicate wells were expressed as mean vessel area per field ±SEM (relative units). […]

B1: E3: human anti-Tie1 antibody from phage Fab library, reformatted as IgG; HC variable SEQ ID NO:114, LC variable SEQ ID NO:116 (antibody, V domains shown)
VH: EVQLLESGGGLVQPGGSLRLSCAASGFTFSMYGMVWVRQAPGKGLEWVSVISPSGGNTGYADSVKGRFTISRDNSKNTLYLQVNSLRAEDTAVYYCARAPRGYSYGYYYWGQGTLVTVSSASTKGPSVFPLAPSSKSTSGG
VL: DIQMTQSPLSLSASVGDRVTITCRASQGIGHYLAWYQQKPGKVPKLLIYTASTLQSGVPSRFSGSGSGTDFTLTINSLQPEDVATYYCQQFNSYPHTFGQGTRLDIK
modifications: IgG constant regions; Synthetically generated peptide
- IC50, tube formation (HUVEC, collagen type-I matrix, 0.1 ng/ml to 100 ng/ml tested): less than 10 ng/ml
- inhibition of tube formation by HUVECs (collagen type-I gel): potent inhibitor of tube formation by HUVECS even at a concentration of 10 ng/ml
